In US6572751B1, “Method and apparatus for continuous flow isoelectric focusing for purifying biological substances” (priority 1997, dated 2003) one finds amylolytic activity data, which are given here for one molecule.

A short description of this assay: Amylolytic activity of purified α-amylase. Conditions: middle outflow after second contifocusing run.

B1: α-amylase: enzyme purified from Bacillus subtilis strain A-200 culture supernatant (protein, UniProt P00691 42-659, looked up)
Alpha-amylase: LTAPSIKSGTILHAWNWSFNTLKHNMKDIHDAGYTAIQTSPINQVKEGNQGDKSMSNWYWLYQPTSYQIGNRYLGTEQEFKEMCAAAEEYGIKVIVDAVINHTTSDYAAISNEVKSIPNWTHGNTQIKNWSDRWDVTQNSLLGLYDWNTQNTQVQSYLKRFLDRALNDGADGFRFDAAKHIELPDDGSYGSQFWPNITNTSAEFQYGEILQDSASRDAAYANYMDVTASNYGHSIRSALKNRNLGVSNISHYASDVSADKLVTWVESHDTYANDDEESTWMSDDDIRLGWAVIASRSGSTPLFFSRPEGGGNGVRFPGKSQIGDRGSALFEDQAITAVNRFHNVMAGQPEELSNPNGNNQIFMNQRGSHGVVLANAGSSSVSINTATKLPDGRYDNKAGAGSFQVNDGKLTGTINARSVAVLYPDDIAKAPHVFLENYKTGVTHSFNDQLTITLRADANTTKAVYQINNGPETAFKDGDQFTIGKGDPFGKTYTIMLKGTNSDGVTRTEKYSFVKRDPASAKTIGYQNPNHWSQVNAYIYKHDGSRVIELTGSWPGKPMTKNADGIYTLTLPADTDTTNAKVIFNNGSAQVPGQNQPGFDYVLNGLYNDSGLSGSLPH
With B1, the amylolytic activity is recorded as 200 U/g.
